This passage reports Kd results from PMC4539990.

In this assay the target is purified FLAG-cortactin (rat) (UniProt Q66HL2). The experiment in a line: pull-down.
Sequence of UniProt Q66HL2 (Q66HL2 whole entry): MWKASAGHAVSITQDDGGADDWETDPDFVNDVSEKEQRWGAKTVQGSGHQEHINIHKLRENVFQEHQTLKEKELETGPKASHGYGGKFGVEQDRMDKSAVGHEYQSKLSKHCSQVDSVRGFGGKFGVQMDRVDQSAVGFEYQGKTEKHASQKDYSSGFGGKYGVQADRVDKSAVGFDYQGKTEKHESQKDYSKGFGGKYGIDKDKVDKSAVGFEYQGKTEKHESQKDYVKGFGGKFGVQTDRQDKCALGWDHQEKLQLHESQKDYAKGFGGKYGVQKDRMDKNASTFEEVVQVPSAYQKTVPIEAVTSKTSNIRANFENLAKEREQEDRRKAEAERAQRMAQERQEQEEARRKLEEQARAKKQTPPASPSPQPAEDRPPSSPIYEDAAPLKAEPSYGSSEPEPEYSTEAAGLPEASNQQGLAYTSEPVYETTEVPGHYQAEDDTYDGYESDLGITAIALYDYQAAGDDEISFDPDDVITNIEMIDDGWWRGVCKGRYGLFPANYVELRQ

Usually Kd stands for the free concentration of one partner at which half of the binding sites on the other are occupied at equilibrium, for simple one-to-one binding. A lower Kd goes with a tighter complex. For the substance “purified shootin1 wild type (natural protein)”, the Kd came out at 25 nM.
